Data as given in patent publication US20100233154A1 (AstraZeneca / MedImmune, published 2010).

T1: recombinant human heparanase (active, 8 and 50 kDa sub-units, from baculovirus-infected Hi5 cells) (human, UniProt Q9Y251 36-109; Q9Y251 158-543)
T1 sequence (looked up) 1: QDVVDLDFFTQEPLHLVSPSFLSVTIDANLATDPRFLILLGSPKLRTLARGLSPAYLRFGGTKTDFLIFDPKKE
T1 sequence (looked up) 2: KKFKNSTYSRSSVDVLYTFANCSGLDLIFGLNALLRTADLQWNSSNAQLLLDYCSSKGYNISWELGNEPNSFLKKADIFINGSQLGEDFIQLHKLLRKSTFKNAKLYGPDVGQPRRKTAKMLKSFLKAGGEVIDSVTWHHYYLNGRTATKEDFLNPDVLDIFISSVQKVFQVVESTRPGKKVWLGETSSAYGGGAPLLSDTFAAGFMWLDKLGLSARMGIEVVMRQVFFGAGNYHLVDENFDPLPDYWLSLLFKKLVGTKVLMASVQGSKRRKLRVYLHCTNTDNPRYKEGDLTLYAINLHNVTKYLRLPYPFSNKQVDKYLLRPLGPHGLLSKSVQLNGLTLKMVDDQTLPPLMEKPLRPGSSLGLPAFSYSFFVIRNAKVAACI

T2: human heparanase as used in the cross species capture ELISA (human, UniProt Q9Y251 36-543, limits assumed)
T2 construct: Captured on plates by a rabbit anti-heparanase antibody
T2 sequence (looked up): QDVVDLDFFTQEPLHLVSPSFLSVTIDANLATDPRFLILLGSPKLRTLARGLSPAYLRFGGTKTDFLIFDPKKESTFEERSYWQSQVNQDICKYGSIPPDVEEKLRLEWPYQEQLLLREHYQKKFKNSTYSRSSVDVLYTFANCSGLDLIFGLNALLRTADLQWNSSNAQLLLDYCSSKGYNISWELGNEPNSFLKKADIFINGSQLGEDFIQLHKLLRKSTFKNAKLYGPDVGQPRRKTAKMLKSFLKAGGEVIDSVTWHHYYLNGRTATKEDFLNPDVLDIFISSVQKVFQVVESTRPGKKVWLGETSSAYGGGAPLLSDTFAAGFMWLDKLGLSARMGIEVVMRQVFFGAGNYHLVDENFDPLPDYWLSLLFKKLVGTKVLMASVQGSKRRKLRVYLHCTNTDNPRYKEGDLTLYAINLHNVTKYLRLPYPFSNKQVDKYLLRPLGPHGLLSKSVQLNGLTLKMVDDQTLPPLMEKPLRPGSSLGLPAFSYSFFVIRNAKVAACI

T3: murine heparanase (murine, UniProt Q6YGZ1 28-535, limits assumed)
T3 construct: also called Mouse; recombinant murine heparanase
T3 sequence (looked up): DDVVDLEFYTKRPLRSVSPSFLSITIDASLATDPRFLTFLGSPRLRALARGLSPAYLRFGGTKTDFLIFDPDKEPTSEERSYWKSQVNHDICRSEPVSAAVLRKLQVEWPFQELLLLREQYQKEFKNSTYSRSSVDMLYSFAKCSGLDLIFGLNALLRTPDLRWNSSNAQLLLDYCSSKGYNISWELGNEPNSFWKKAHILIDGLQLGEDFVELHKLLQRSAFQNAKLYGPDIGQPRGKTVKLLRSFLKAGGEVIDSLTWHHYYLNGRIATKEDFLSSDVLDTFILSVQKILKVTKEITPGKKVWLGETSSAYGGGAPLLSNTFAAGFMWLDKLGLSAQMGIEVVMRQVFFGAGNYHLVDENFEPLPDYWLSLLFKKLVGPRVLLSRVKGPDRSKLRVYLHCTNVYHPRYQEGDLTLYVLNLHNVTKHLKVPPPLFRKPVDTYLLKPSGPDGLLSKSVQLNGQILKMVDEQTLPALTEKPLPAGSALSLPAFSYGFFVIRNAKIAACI

T4: cynomolgus heparanase (cynomolgus, UniProt A0A2K5UQU0 87-593)
T4 construct: also called recombinant cynomolgus heparanase
T4 sequence: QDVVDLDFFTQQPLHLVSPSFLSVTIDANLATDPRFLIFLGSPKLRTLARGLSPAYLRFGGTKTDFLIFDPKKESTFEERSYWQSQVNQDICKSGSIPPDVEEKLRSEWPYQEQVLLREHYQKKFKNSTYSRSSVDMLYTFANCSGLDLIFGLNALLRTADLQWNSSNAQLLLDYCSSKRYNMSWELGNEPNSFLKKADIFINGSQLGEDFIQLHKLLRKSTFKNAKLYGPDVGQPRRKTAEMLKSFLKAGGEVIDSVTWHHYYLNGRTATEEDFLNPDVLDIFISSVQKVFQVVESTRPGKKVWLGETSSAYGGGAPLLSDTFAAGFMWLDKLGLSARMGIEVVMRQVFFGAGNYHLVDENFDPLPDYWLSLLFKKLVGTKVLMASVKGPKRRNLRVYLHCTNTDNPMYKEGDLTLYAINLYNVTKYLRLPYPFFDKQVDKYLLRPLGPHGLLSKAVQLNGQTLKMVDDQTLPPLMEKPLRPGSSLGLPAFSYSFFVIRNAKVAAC


Assays:
[1] = target: T1, recombinant human heparanase (active, 8 …); assay: cell-based or functional assay
[2] = target: T1, recombinant human heparanase (active, 8 …); assay: ELISA, hybridoma supernatant on directly coated recombinant human heparanase
[3] = target: T2, human heparanase as used in the cross …; assay: cross species capture ELISA, heparanase captured by rabbit anti-heparanase antibody, exhaustive supernatant 1:5, anti-human IgG Fc detection
Experimental: (§1) Initially, cross species binding to human, murine and cynomolgus heparanase was determined in an ELISA assay in which heparanase was captured onto plates using a rabbit anti-heparanase antibody (Raybiotech, Cat. IP-14-155). Exhaustive supernatants were added to the plates at a final dilution of 1:5 and bound antibody detected with a rabbit anti-human IgG Fc.

murine heparanase = target: T3, murine heparanase; assay: as above
Experimental: as §1

cynomolgus heparanase = target: T4, cynomolgus heparanase; assay: as above
Experimental: as §1

[4] = target: T1, recombinant human heparanase (active, 8 …); assay: medium resolution Biacore, antibody captured on goat anti-human antibody CM4 chip, recombinant Hpa1 at 1 nM and 10 nM, 25 C, 1:1 model with mass transport
Experimental: For medium resolution Biacore™ tests, cloned and purified antibodies were used. Each of three purified antibodies (10E9.1, 15A1.2, and 15A11.1) were captured onto a high-density goat anti-human antibody surface over a CM4 Biacore™ chip. Recombinant Hpa1 was diluted to the desired concentration (1 nM and 10 nM) in 10 mM HEPES, 150 mM NaCl, 0.005% tween-20, 0.1 mg per ml BSA pH7.4 (25° C.) immediately prior to injection. Data were fit globally to a 1:1 interaction model with a term for mass transport included. The resulting KD values are summarised below in Table 4.

Binder	Inhibition of recombinant human heparanase %, Assay 1 [1] [%]	Inhibition of recombinant human heparanase %, Assay 2 [1] [%]	OD, binding to direct coated heparanase [2] [OD units]	OD, binding to heparanase (Human) [3] [OD units]	OD, binding to heparanase (Mouse) (murine heparanase) [OD units]	OD, binding to heparanase (Cyno) (cynomolgus heparanase) [OD units]	Kd [4] [nM]	koff [4] [s⁻¹]	kon [4] [M⁻¹ s⁻¹]
monoclonal antibody 14H12.3 (antibody, V domains shown, Fully human (XenoMouse) antibody) VH: QVQLVESGGGVVQPGRSLRLSCAASGFTFSSYGMHWVRQAPGKGLEWVAVIWYDGSNKDYADSVKGRFTISRDNSKNTLYLQMNSLRAEDTAVYYCAREGSTSWTDYYGMDVWGQGTTVTVSS VL: SYELTQPPSVSVSPGQTARITCSGDALPKRYAYWYQQKSGQALVLVIYEDSKRPSGIPERFSGSSSGTMATLTISGAQVEDEADYYCYSIDSSGNHGVFGGGTKLTVL	58	85	3.69	0.61	0.14	0.95	–	–	–
monoclonal antibody 10E9.1 (antibody, V domains shown, Fully human (XenoMouse) antibody; also called mAb 10E9.1; ATCC PTA-9489) VH: QVQLVQSGAEVKKPGASVKVSCKVSGYSLTELSIHWVRQAPGKGLEWMGGFDPEDGEIIFAQKFQGRVTLTEDISLDTAYMEVSSLRSEDTAVYYCATEGHDSGDYVGYYYYGLDVWGQGTTVTVSS VL: DIQMTQSPSSLSASVGDRVTITCRASQDIRNFLAWYQQKPGKLPKLLIYAASTLQSGVPSRFSGSGSGTDFTLTISSLQPEDVASYYCQSHNSVPFTFGPGTKVDIR	88	99	0.2	0.63	0.49	1.4	0.0545	0.000112	2.06e+06
monoclonal antibody 15A1.2 (antibody, V domains shown, Fully human (XenoMouse) antibody; also called ATCC PTA-9491) VH: QVQLVQSGAEVKKPGASVKVSCKVSGYTLTELSMHWVRQAPGKGLEWMGGFDPEDGETIFAQKFQGRVTMTEDTSTDTAYMELSSLRSEDTAVYYCATGLRFLEWFLWGWDVWGQGTTVTVSS VL: DIQMTQSPSSVSASVGDRVTITCRASQGISNWLAWYQQTPGKAPQLLIYGASSLQSGVPSRFSGSGSGTDFTLTISSLQPEDFATYYCQQADSFPPTFGQGTKVEIK	81	91	0.08	0.19	0.14	–	0.056	0.000105	1.88e+06
monoclonal antibody 7B9.1 (antibody, V domains shown, Fully human (XenoMouse) antibody) VH: QVQLVESGGGVVQPGRSLRLSCAASGFTFSSYGMHWVRQAPGKGLEWVAVIWYDGSNKYYADSVKGRFTISRDNSKNTLYLQMNSLRAEDTAVYYCAREGAPYSSSDAFDIWGQGTMVTVSS VL: QSVLTQPPSVSGAPGQRVTISCTGSSSNIGANYDVHWYQQLPGTAPKLLIYGDNNRPSGVPDRFSGSKSGTSASLAITGLQAEDEADYYCQSYDSSLSGSVFGGGTKLTVL	63	54	3.78	0.68	0.58	1.06	–	–	–

Other lines, results leading:

Inhibition of recombinant human heparanase %, Assay 1 [1] [%]	Inhibition of recombinant human heparanase %, Assay 2 [1] [%]	OD, binding to direct coated heparanase [2] [OD units]	OD, binding to heparanase (Human) [3] [OD units]	OD, binding to heparanase (Mouse) (murine heparanase) [OD units]	OD, binding to heparanase (Cyno) (cynomolgus heparanase) [OD units]	Kd [4] [nM]	koff [4] [s⁻¹]	kon [4] [M⁻¹ s⁻¹]	Binder
75	87	0.07	0.21	0.17	0.14	0.056	0.000309	3.6e+06	monoclonal antibody 15A11.1 (antibody, V domains shown, Fully human (XenoMouse) antibody; also called ATCC PTA-9490) VH: QVQLVQSGAEVKKPGASVKVSCKVSGDTLTELSMHWVRQTPGKGLEWMGGFDPEDGETIYAQKFQGRVTMTGDTSTDTAYMELSSLRSEDTAVYYCATEGDYGDSEEYYYYYGMDVWGQGTTVTVSS VL: DIQMTQSPSSLSASVGDRVTITCRASQGISNYLAWYQQKPGKVPKLLIYAASTLQSGVPSRFSGSGSGTDFTLTISSLQPEDVATYYCQKYNRAPFTFGPGTKVDIK
40	51	0.15	1.08	0.63	1.66	–	–	–	monoclonal antibody 16E1.1 (antibody, V domains shown, Fully human (XenoMouse) antibody) VH: QVQLQESGPGLVKPSQTLSLTCTVSGGSISSGGYYWSWIRQHPGKGLEWIGFIYYSGSTFYNPSLKSRITISVDTSKNQFSLKLSSVTAADTAVYYCARPYSSSWYGAFDIWGQGTMVTVSS VL: SYELTQPPSVSVSPGRTASITCSEDKLGNKYAYWYQQKPGQSPVLVIYQDSERPSGIPERFSGSNSGNTATLTISGTQAMDEADYYCQAWDSSTVVFGGGTKLTVL
44	53	3.63	1.84	0.61	1.64	–	–	–	monoclonal antibody 16G1.1 (antibody, V domains shown, Fully human (XenoMouse) antibody) VH: QVQLVESGGGVVQPGRSLRLSCAASGFTFSSYGMHWVRQAPGKGLEWVAVIWYDGSNKYYADSVKGRFTISRDNSKNTLNLQMNSLRAEDTAVYYCGRDPGTYHYYYHGMDVWGQGTTVTVSS VL: YIVMTQSPLSLPVTPGEPASISCRSSQSLLHSNGYNFLDWYLQKPGQSPQLLIYLGSNRASGVPDRFSGSGSGTDFTLKINRVEAEDVGVYYCMQALQTPITFGQGTRLEIK
